# According to US20180311369A1 (WRIGHT STATE UNIVERSITY, published 2018):
# How the values were obtained:
# MAGI-1 PDZ1 domain [1] = target: T1, MAGI-1 PDZ1 domain (Rattus norvegicus (Rat), UniProt Q4L1J4 475-542, limits assumed); test: ligand binding assay with purified MAGI-1 PDZ1
# T1 construct: also called MAGI-PDZ-1
# MAGI-1 PDZ3 domain [2] = target: T2, MAGI-1 PDZ3 domain (Rattus norvegicus (Rat), UniProt Q4L1J4 846-921, limits assumed); test: ligand binding assay with purified MAGI-1 PDZ3
# MAGI-1 PDZ1 domain [3] = target: T1, MAGI-1 PDZ1 domain; test: ligand binding assay with purified PDZ domain
# MAGI-1 PDZ3 domain [4] = target: T2, MAGI-1 PDZ3 domain; test: ligand binding assay with purified PDZ domain
# T2 sequence (Q4L1J4 846-921 limits assumed): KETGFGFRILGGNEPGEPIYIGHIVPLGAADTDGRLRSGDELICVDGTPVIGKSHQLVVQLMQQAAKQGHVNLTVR
# T1 sequence (Q4L1J4 475-542 limits assumed): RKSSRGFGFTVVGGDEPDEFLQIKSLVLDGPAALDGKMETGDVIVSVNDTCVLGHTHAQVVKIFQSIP
Binder,Kd (MAGI-1 PDZ1 domain [1]) [nM],Kd (MAGI-1 PDZ3 domain [2]) [nM],binding result (MAGI-1 PDZ1 domain [3]),binding result (MAGI-1 PDZ3 domain [4])
GRKKRRQRRRPPQYKTDGITVV (also called TAT-PDZ3 peptide) [TAT-CAR^Ex8],23,4,,
GRKKRRQRRRPPQAQSQAGSLV (also called TAT-PDZ3 peptide) [TAT-ESAM],,17,no binding,
GRKKRRQRRRPPQGGKKKETLV (also called TAT-PDZ1 peptide) [TAT-NET1],28,,,no binding
GRKKRRQRRRPPQSRTRRETQL (also called TAT-E6) [TAT-HPV E6],15,,,no binding
